This note sets out measurements from patent US20230192831A1.

In experiment [1] the target is recombinant human GREM1 (hGREM1-His; C-terminal 10His tagged, R&D, #5190-GR) (human) (UniProt O60565). Briefly: BLI Octet, captured mAb, 100 nM GREM1 + 5 uM heparin. A general note: In BLI a coated tip is dipped into the sample, and binding shifts an interference pattern.
Experiment [2] has the same target. Briefly: BLI Octet, captured mAb, 100 nM GREM1.
The target is the same in experiment [3]. Briefly: cell-based or functional assay.
Experiment [4] has the same target. Nature of the experiment: BLI Octet, captured mAb, 100 nM GREM1 without vs with 5 uM heparin.

Sequence of recombinant human GREM1 (hGREM1-His; C-terminal 10His tagged, R&D, #5190-GR) (human) (O60565 other isoform, or with tags, fused parts or gaps limits assumed, form in doubt): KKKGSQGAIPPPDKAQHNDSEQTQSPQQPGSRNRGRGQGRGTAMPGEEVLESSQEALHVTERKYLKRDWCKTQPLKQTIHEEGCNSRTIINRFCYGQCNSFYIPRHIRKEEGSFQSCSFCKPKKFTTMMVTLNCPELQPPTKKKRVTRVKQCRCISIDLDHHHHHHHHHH

B1: H4H6246P (antibody, human IgG4, V domains shown)
VH: QVQLVESGGGVVQPGRSLRLSCAASGFTFSSYGMHWVRQAPGKGLEWVAIIWYDGSNRYYADSVKGRFTISRDNSRNTLYLQMNSLRAEDTAVYYCARDEYGDYDYPFDYWGQGTLVTVSS
VL: DIQMTQSPSSLSASVGDRVTITCRASQGIRNDLGWFQQKPGKAPKRLIYAASSLQSGVPSRFSGSGSGTEFTLTISSLQPEDFATYYCLQHNTYPPFTFGPGTKVDIK
Regarding B1, in experiment [1], the Binding Signal with 30 sec Association (nm) worked out at 0.06 nm and the Binding Signal with 300 sec Association (nm) came out at 0.34 nm. For the same molecule, in experiment [2], the Binding Signal with 30 sec Association (nm) came out at 0.19 nm and the Binding Signal with 300 sec Association (nm) was found to be 0.38 nm. Besides, in experiment [3], the IC50 [M], W-20-17/BRE-luc luciferase bioassay, 100 pM hBMP4 and 10 nM hGREM1-His came to 5.6e-10 M; the hGREM1-His Inhibition IC50, M; W-20-17 cell differentiation assay (alkaline phosphatase) was 6.2 nM. Moreover, in experiment [4], the Reduction in Signal from Heparin at 30 sec worked out at 0.13 nm and the Reduction in Signal from Heparin at 300 sec came out at 0.04 nm.

B2: H4H6250P (antibody, human IgG4, V domains shown)
VH: QVQLVESGGGVVQPGRSLRLSCAASGFTFSNYGMHWVRQAPGKGLEWVAVIWYDGSNKYYADSVKGRFTISRDNSRKTLYLQMNSLRAEDTAIYYCTRDDYGDYDYPFDYWGQGTLVTVSS
VL: DIQMTQSPSSLSASVGDRVTITCRASQGIRNDLGWYQQKPGKAPKRLIYAASSLQSGVPSRFSGTGSGTEFTLTISSLQPEDFATYYCLQHNSYPPFTFGPGTKVDIK
On to B2, for which, in experiment [1], the Binding Signal with 30 sec Association (nm) was found to be 0.06 nm and the Binding Signal with 300 sec Association (nm) is 0.32 nm. Further, in experiment [2], the Binding Signal with 30 sec Association (nm) came to 0.2 nm and the Binding Signal with 300 sec Association (nm) was determined as 0.37 nm. Moreover, in experiment [3], the IC50 [M], W-20-17/BRE-luc luciferase bioassay, 100 pM hBMP4 and 10 nM hGREM1-His is 4.4e-10 M; the hGREM1-His Inhibition IC50, M; W-20-17 cell differentiation assay (alkaline phosphatase) came to 12 nM. In addition, in experiment [4], the Reduction in Signal from Heparin at 30 sec is 0.14 nm and the Reduction in Signal from Heparin at 300 sec was found to be 0.05 nm.

B3: H4H6232P (antibody, human IgG4, V domains shown)
VH: QVQLVQSGAEVKKPGASVKVSCKVSGYTLTELSMHWVRQAPGKGLEWMGGFDPEDGETIYAQKFQGRLTMTEDTSTDTAYMELSSLRSEDTAVYYCATDDYDILTSYPYNMDVWGQGTTVTVSS
VL: DIQMTQSPSSLSASVGDRVTITCRASQSINNYLNWYQQKPGKAPKLLIYAASSLQSGVPSRFSGSGSGTDFTLTISSLQPEDFGTYYCQQSDSTPFTFGPGTKVDIK
Take B3: in experiment [1], the Binding Signal with 30 sec Association (nm) stood at 0.06 nm and the Binding Signal with 300 sec Association (nm) was 0.46 nm. In addition, in experiment [2], the Binding Signal with 30 sec Association (nm) was found to be 0.33 nm and the Binding Signal with 300 sec Association (nm) amounted to 0.48 nm. In experiment [3], the IC50 [M], W-20-17/BRE-luc luciferase bioassay, 100 pM hBMP4 and 10 nM hGREM1-His came to 7.8e-10 M; the hGREM1-His Inhibition IC50, M; W-20-17 cell differentiation assay (alkaline phosphatase) was 4.5 nM. For the same molecule, in experiment [4], the Reduction in Signal from Heparin at 30 sec was determined as 0.27 nm and the Reduction in Signal from Heparin at 300 sec was found to be 0.02 nm.

B4: H4H6243P (antibody, human IgG4, V domains shown)
VH: QVQLVQSGAEVKKPGASVKVSCKVSGYTLTELSMHWVRQAPGKGLEWMGGFDPEDGETIYAQKFQDRVTMTEDTSTDTAYMELSSLRSEDTAVYYCVTDDYEILPEYPYNMDVWGQGTTVTVSS
VL: DIQMTQSPSSLSASVGDRVTITCRASQSISTYLNWYQQKPGKAPKLLIYAASSLQSGVPSRFSGSGSGTDFTLTIRSLQPEDFATYYCQQSHITPFTFGPGTKVDIK
As to B4, in experiment [1], the Binding Signal with 30 sec Association (nm) was found to be 0 nm and the Binding Signal with 300 sec Association (nm) is 0.21 nm. For the same molecule, in experiment [2], the Binding Signal with 30 sec Association (nm) amounted to 0.3 nm and the Binding Signal with 300 sec Association (nm) was found to be 0.47 nm. Also, in experiment [3], the IC50 [M], W-20-17/BRE-luc luciferase bioassay, 100 pM hBMP4 and 10 nM hGREM1-His is 5.4e-10 M; the hGREM1-His Inhibition IC50, M; W-20-17 cell differentiation assay (alkaline phosphatase) is 5.9 nM. Further, in experiment [4], the Reduction in Signal from Heparin at 30 sec turned out to be 0.3 nm and the Reduction in Signal from Heparin at 300 sec worked out at 0.26 nm.

B5: H4H2926N (antibody, human IgG4, V domains shown)
VH: EVQLVESGGGLVQTGRSLRLSCAASGFTFDDYAMNWVRQAPGKGLEWVSGISWNSGNIGYADSVKGRFTISRDNAKNSLYLQMNSLRAEDTALYYCVKYIGQQLVQDYFDYWGQGTLVTVSS
VL: DIQMTQSPSSLSASVGDRVTITCQASQDITNYLNWYQQRPGKAPKLLIYDAFNLERGVPSRFSGSGYGTYFTFTISSLQPEDIAIYYCQQYDNLPLTFGGGTKVEIE
For the molecule B5, in experiment [1], the Binding Signal with 30 sec Association (nm) was found to be 0.07 nm and the Binding Signal with 300 sec Association (nm) turned out to be 0.42 nm. Also, in experiment [2], the Binding Signal with 30 sec Association (nm) was found to be 0.23 nm and the Binding Signal with 300 sec Association (nm) turned out to be 0.49 nm. For the same molecule, in experiment [3], the IC50 [M], W-20-17/BRE-luc luciferase bioassay, 100 pM hBMP4 and 10 nM hGREM1-His was 1.2e-09 M; the hGREM1-His Inhibition IC50, M; W-20-17 cell differentiation assay (alkaline phosphatase) worked out at 13 nM. In addition, in experiment [4], the Reduction in Signal from Heparin at 30 sec came out at 0.16 nm and the Reduction in Signal from Heparin at 300 sec amounted to 0.07 nm.

B6: H4H6240P (antibody, human IgG4, V domains shown)
VH: QVQLVESGGGVVQPGRSLRLSCAASGFTFSSYGMHWVRQAPGKGLEWVAVIWYDGSNKYYADSVKGRFIISRDNSKNMMYLQMNSLRAEDTAVYYCAREDNWNYAFDYWGQGTLVTVSS
VL: EIVMTQSPATLSVSPGERATLSCRASQSISSNLAWYQQKPGQAPRLLIYDSSTRATGIPARFSGSGSGTQFTLTISSLQSEDFALYYCQQYSNWPPFTFGPGTKVDIK
For the molecule B6, in experiment [1], the Binding Signal with 30 sec Association (nm) is 0.05 nm and the Binding Signal with 300 sec Association (nm) is 0.37 nm. Besides, in experiment [2], the Binding Signal with 30 sec Association (nm) worked out at 0.23 nm and the Binding Signal with 300 sec Association (nm) stood at 0.53 nm. In experiment [3], the IC50 [M], W-20-17/BRE-luc luciferase bioassay, 100 pM hBMP4 and 10 nM hGREM1-His was 8.1e-10 M; the hGREM1-His Inhibition IC50, M; W-20-17 cell differentiation assay (alkaline phosphatase) was 7.8 nM. In experiment [4], the Reduction in Signal from Heparin at 30 sec was determined as 0.18 nm and the Reduction in Signal from Heparin at 300 sec was 0.16 nm.

B7: H4H6248P (antibody, human IgG4, V domains shown)
VH: QVQLVESGGGVVQPGRSLRLSCAASGFTFSNYGMHWVRQVPGKGLEWVAVIWYDGSNKYYADSVKGRFTISRDNSKNTLYLQMNSVRAEDTAVYYCARDDYGDSPGFDYWGQGTLVTVSS
VL: EIVMTQSPATLSVSPGERATLSCRASQSVSSSLAWYQQKPGQAPRLLIYDASTRATGIPARFSGSGSGTEFTLTISGLQSEDFAVYYCQQYNNWPPWTFGQGTKVEIK
As to B7, in experiment [1], the Binding Signal with 30 sec Association (nm) came out at 0.04 nm and the Binding Signal with 300 sec Association (nm) is 0.37 nm. Also, in experiment [2], the Binding Signal with 30 sec Association (nm) amounted to 0.21 nm and the Binding Signal with 300 sec Association (nm) turned out to be 0.42 nm. Besides, in experiment [3], the IC50 [M], W-20-17/BRE-luc luciferase bioassay, 100 pM hBMP4 and 10 nM hGREM1-His turned out to be 5.3e-10 M; the hGREM1-His Inhibition IC50, M; W-20-17 cell differentiation assay (alkaline phosphatase) was 5.6 nM. In experiment [4], the Reduction in Signal from Heparin at 30 sec was found to be 0.17 nm and the Reduction in Signal from Heparin at 300 sec amounted to 0.05 nm.

B8: H4H6245P (antibody, human IgG4, V domains shown)
VH: EVQLVESGGGLVQPGGSLRLSCAASGFTFNSFWMSWVRQAPGKGLEWVANIKQDGSEKYYVDSVKGRFTISRDNAKNSVYLQMNSLRAEDTAVYYCARDLVTSFDYWGQGTLVTVSS
VL: DIQMTQSPSSLSASVGDRVTITCQASQDINNYLNWYQQKPGKAPKLLIYDASYLETGVPSGFSGSGSGTDFTFTISSLQPEDIATYYCQQYDSLPYTFGQGTKLEIK
As to B8, in experiment [1], the Binding Signal with 30 sec Association (nm) was 0.02 nm and the Binding Signal with 300 sec Association (nm) is 0.22 nm. In experiment [2], the Binding Signal with 30 sec Association (nm) worked out at 0.23 nm and the Binding Signal with 300 sec Association (nm) came out at 0.41 nm. In experiment [3], the IC50 [M], W-20-17/BRE-luc luciferase bioassay, 100 pM hBMP4 and 10 nM hGREM1-His came out at 5.3e-10 M; the hGREM1-His Inhibition IC50, M; W-20-17 cell differentiation assay (alkaline phosphatase) was 6.1 nM. Also, in experiment [4], the Reduction in Signal from Heparin at 30 sec is 0.21 nm and the Reduction in Signal from Heparin at 300 sec amounted to 0.19 nm.

B9: H4H2892N (antibody, human IgG4, V domains shown)
VH: QVQLVESGGGVVQPGRSLRLSCAASGFTFSSYGIHWVRQAPGKGLEWVAILWYDGSNKYYADSVKGRFTISRDNSKTTLYLQMNSLRAEDTAVYYCARENYNDLNFDLWGRGTLVTVSS
VL: DIQLTQSPSFLSASVGDRVTITCWASQGISSYLAWYQHKPGKAPKLLIYAASTLQSGVPSRFSGSGSGIEFTLTISSLQPEDFATYYCQQLKSYPPWTFGQGTKVEIR
In the case of B9, in experiment [1], the Binding Signal with 30 sec Association (nm) amounted to 0.15 nm and the Binding Signal with 300 sec Association (nm) stood at 0.49 nm. Also, in experiment [2], the Binding Signal with 30 sec Association (nm) turned out to be 0.2 nm and the Binding Signal with 300 sec Association (nm) was found to be 0.49 nm. In addition, in experiment [3], the IC50 [M], W-20-17/BRE-luc luciferase bioassay, 100 pM hBMP4 and 10 nM hGREM1-His was 9.5e-10 M; the hGREM1-His Inhibition IC50, M; W-20-17 cell differentiation assay (alkaline phosphatase) was 4.4 nM. For the same molecule, in experiment [4], the Reduction in Signal from Heparin at 30 sec came to 0.05 nm and the Reduction in Signal from Heparin at 300 sec amounted to 0 nm.

B10: H4H2895N (antibody, human IgG4, V domains shown)
VH: EVQLVESGGGLVQPGGSLRLSCAASGFTVSSNYMSWVRQAPGKGLEWVSVIYSGGNTYYADSVKGRFTISRHNSKNTLYLQMNSLRAEDTAVYYCARDLGIKSDYWGQGTLVTVSS
VL: EIVLTQSPDFQSVTPKEKVTITCRASQSIGTTLHWYQQKPDQSPKLLIKYVSQSLSGVPSRFSGSGSGTDFTLTINSLEAEDAATYYCHQSSSLPWTFGQGTKVEIK
As to B10, in experiment [1], the Binding Signal with 30 sec Association (nm) came out at 0.22 nm and the Binding Signal with 300 sec Association (nm) worked out at 0.54 nm. Further, in experiment [2], the Binding Signal with 30 sec Association (nm) came out at 0.15 nm and the Binding Signal with 300 sec Association (nm) worked out at 0.5 nm. For the same molecule, in experiment [3], the IC50 [M], W-20-17/BRE-luc luciferase bioassay, 100 pM hBMP4 and 10 nM hGREM1-His stood at 5.8e-10 M; the hGREM1-His Inhibition IC50, M; W-20-17 cell differentiation assay (alkaline phosphatase) turned out to be 1.9 nM. In experiment [4], the Reduction in Signal from Heparin at 30 sec was -0.07 nm and the Reduction in Signal from Heparin at 300 sec is -0.04 nm.
